From PMC4022879, “Interactions Outside the Proteinase-binding Loop Contribute Significantly to the Inhibition of Activated Coagulation Factor XII by Its Canonical Inhibitor from Corn*^([image sbox.jpg])” (The Journal of Biological Chemistry, 2014)
Residue numbers refer to the chain shown, from its start. Numbers in names are those of the source.

Biological target: activated coagulation factor XI (FXIa) (Activated two-chain form, cleaved after residue 387 (precursor numbering). Heavy and light chains are disulfide-linked, and the whole is a disulfide-linked homodimer; N-glycosylated. The commercial fu)
Assay: chromogenic enzyme inhibition assay; 200 pM FXIa, 500 μM S2366, 37 °C, 110 mM Tris-HCl pH 8.0, 250 mM NaCl, 1% BSA; residual activity in triplicate at at least six inhibitor concentrations; Ki from a linear fit of 1/v against inhibitor concentration
Conditions: both partners purified

Sequence of activated coagulation factor XI (FXIa) (Activated two-chain form, cleaved after residue 387 (precursor numbering). Heavy and light chains are disulfide-linked, and the whole is a disulfide-linked homodimer; N-glycosylated. The commercial fu) (chain, as listed by the source, chain 1 of 2): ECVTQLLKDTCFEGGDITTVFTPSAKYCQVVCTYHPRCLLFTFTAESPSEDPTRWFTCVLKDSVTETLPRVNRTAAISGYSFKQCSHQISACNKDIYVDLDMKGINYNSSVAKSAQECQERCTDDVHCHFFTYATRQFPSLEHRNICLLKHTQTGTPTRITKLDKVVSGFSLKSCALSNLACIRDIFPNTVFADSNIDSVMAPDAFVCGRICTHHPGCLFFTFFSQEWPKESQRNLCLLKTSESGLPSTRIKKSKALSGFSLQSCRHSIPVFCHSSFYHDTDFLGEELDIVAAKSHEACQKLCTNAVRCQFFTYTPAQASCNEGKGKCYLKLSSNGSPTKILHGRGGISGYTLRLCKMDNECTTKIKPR
Sequence of activated coagulation factor XI (FXIa) (Activated two-chain form, cleaved after residue 387 (precursor numbering). Heavy and light chains are disulfide-linked, and the whole is a disulfide-linked homodimer; N-glycosylated. The commercial fu) (chain, as listed by the source, chain 2 of 2): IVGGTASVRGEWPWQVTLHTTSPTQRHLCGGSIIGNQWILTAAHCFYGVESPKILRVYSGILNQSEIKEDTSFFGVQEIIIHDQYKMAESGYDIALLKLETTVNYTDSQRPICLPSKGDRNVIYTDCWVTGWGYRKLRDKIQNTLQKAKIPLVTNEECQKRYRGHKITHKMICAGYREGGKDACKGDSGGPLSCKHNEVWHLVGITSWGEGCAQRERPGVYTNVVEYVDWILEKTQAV

B1: corn Hageman factor inhibitor (CHFI), control protein from Zea mays seeds (natural protein, UniProt P01088 29-138, looked up)
chain: SAGTSCVPGWAIPHNPLPSCRWYVTSRTCGIGPRLPWPELKRRCCRELADIPAYCRCTALSILMDGAIPPGPDAQLEGRLEDLPGCPREVQRGFAATLVTEAECNLATIS
notes: the mature protein has 127 amino acids, scissile bond Arg34-Leu35; numbers count on: the mature protein (PDB 1BEA); also called CHFI-ER; wild-type CHFI; source: bought: Enzyme Research Laboratories (from Z. mays seeds)
Ki: 5.4 ± 0.2 µM

B2: CHFI-1245, full-size CHFI with Cys29 substituted by Asp (natural protein, Zea mays, UniProt P01088 29-138, looked up)
chain: B1 chain with C29D
notes: numbers count on: the mature protein (PDB 1BEA); also called C29D mutant; source: E. coli Rosetta-Gami 2 DE3, purified (Ni2+-agarose); not shown: His6, N-terminal, kept; C-terminal tag of 1.5 kDa (His tag inferred from pET-28a), C-terminal, kept
Ki: 490 ± 110 µM
